For the assay, the target named is mouse monoclonal PSA antibody. Briefly: SPR, BIAcore 3000, antibody immobilised on CM5 chip.

Usually Kd stands for the concentration at which binding is half-saturated. Substance “PSA-GOx complex (from UniProt P07288 25-261; P13006 23-605)” came in with an equilibrium dissociation constant (Kd) of 18.2 nM.

Substance “Prostate specific antigen (PSA) (from UniProt P07288 25-261) (enzyme)” registered a dissociation constant (Kd) of 0.701 nM.
